Measurements from paper PMC9482650, “Quantitative fragmentomics allow affinity mapping of interactomes” (Nature Communications, 2022).

What was measured:
Test in all cases: holdup assay
Parameters in all cases: key: below the threshold = too weak to quantify, mostly under pKd 3.1 to 4
FRMPD2_2, Q68DX3 = target: FRMPD2_2, Q68DX3
HTRA4, P83105 = target: T1, HTRA4, P83105
T1 sequence (P83105 378-476, limits assumed, looked up): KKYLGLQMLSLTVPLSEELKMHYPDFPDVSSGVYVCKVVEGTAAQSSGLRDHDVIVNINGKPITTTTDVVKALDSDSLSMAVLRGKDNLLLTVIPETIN

MAGI1_1, Q96QZ7 = target: MAGI1_1, Q96QZ7
MAGI1_2, Q96QZ7 = target: MAGI1_2, Q96QZ7
RADIL, Q96JH8 = target: T2, RADIL, Q96JH8
T2 sequence (Q96JH8 971-1071, limits assumed, looked up): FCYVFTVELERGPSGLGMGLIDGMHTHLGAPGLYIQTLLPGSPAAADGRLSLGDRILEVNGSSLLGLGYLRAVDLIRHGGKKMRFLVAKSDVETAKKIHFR

LIN7A, O14910 = target: T3, LIN7A, O14910
T3 sequence (O14910 103-200, limits assumed, looked up): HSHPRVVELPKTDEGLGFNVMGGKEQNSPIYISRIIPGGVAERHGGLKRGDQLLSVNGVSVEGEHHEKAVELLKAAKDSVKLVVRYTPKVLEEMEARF

MPP2, Q14168 = target: T4, MPP2, Q14168
T4 sequence (Q14168 180-250, limits assumed, looked up): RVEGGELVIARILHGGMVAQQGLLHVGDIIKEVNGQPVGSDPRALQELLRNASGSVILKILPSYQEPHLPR

GRIP1_7, Q9Y3R0 = target: T5, GRIP1_7, Q9Y3R0
T5 sequence (Q9Y3R0 999-1096, limits assumed, looked up): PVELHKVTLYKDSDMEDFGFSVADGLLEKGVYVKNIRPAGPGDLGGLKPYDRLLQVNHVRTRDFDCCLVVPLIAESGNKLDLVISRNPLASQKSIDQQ

FRMPD2_1, Q68DX3 = target: FRMPD2_1, Q68DX3
TJP2_1, Q9UDY2 = target: TJP2_1, Q9UDY2
PCLO, Q9Y6V0 = target: T6, PCLO, Q9Y6V0
T6 sequence (Q9Y6V0 4491-4600, limits assumed, looked up): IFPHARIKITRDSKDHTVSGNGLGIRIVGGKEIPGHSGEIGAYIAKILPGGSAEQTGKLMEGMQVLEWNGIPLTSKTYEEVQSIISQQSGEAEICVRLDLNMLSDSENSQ

MPDZ_10, O75970 = target: T7, MPDZ_10, O75970
T7 sequence (O75970 1624-1722, limits assumed, looked up): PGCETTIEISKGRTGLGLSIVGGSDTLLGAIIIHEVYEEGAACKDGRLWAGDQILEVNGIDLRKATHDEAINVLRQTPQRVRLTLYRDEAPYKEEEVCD

ARHGEF11, O15085 = target: T8, ARHGEF11, O15085
T8 sequence (O15085 42-136, limits assumed, looked up): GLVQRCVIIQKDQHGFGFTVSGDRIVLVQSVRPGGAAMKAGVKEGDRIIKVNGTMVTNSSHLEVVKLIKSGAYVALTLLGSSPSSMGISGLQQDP

Inadl_9, Q8NI35 = target: Inadl_9, Q8NI35
NHERF3_4, Q5T2W1 = target: T9, NHERF3_4, Q5T2W1
T9 sequence (Q5T2W1 373-468, limits assumed, looked up): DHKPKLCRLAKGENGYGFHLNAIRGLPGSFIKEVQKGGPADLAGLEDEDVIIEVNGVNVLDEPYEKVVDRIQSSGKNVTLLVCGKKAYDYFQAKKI

DFNB31_1, Q9P202 = target: T10, DFNB31_1, Q9P202
T10 sequence (Q9P202 135-233, limits assumed, looked up): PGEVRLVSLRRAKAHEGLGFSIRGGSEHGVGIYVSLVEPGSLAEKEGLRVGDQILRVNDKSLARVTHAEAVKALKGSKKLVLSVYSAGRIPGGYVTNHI

LNX1_3, Q8TBB1 = target: LNX1_3, Q8TBB1
IL16_3, Q14005 = target: IL16_3, Q14005
TJP1_2, Q07157 = target: TJP1_2, Q07157
TX1BP3, O14907 = target: T11, TX1BP3, O14907
T11 sequence (O14907 10-122, limits assumed, looked up): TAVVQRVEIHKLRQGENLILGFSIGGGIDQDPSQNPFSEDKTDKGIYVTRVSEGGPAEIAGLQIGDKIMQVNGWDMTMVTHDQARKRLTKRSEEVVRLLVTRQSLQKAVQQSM

GOPC, Q9HD26 = target: GOPC, Q9HD26
Inadl_5, Q8NI35 = target: Inadl_5, Q8NI35
Inadl_10, Q8NI35 = target: Inadl_10, Q8NI35
MAGI3_2, Q5TCQ9 = target: MAGI3_2, Q5TCQ9
LNX2_2, Q8N448 = target: T12, LNX2_2, Q8N448
T12 sequence (Q8N448 334-432, limits assumed, looked up): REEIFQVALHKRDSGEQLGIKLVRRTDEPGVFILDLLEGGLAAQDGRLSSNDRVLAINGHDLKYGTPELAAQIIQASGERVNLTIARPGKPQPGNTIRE

[1] = modified: phospho on T at position -2 from the C-terminal residue
[2] = plain residues with an end cap or a label only (N-terminal biotin on a linker: ado-ado)

Chain of TJP2_1, Q9UDY2 (Q9UDY2 24-128): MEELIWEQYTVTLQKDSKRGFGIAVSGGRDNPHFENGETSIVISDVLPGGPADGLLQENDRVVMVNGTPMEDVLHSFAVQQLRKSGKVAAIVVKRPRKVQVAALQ
Chain of IL16_3, Q14005 (Q14005 1107-1207): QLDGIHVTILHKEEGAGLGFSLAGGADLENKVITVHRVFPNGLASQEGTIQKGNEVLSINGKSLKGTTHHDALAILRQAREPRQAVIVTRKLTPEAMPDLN
Chain of MAGI3_2, Q5TCQ9 (Q5TCQ9 398-503): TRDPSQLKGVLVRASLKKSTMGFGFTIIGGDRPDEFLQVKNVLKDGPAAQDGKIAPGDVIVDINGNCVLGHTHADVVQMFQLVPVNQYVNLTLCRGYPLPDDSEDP
Chain of LNX1_3, Q8TBB1 (Q8TBB1 500-596): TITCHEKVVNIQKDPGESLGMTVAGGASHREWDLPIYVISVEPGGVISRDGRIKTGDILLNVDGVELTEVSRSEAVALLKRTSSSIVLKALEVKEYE
Chain of Inadl_9, Q8NI35 (Q8NI35 1530-1615): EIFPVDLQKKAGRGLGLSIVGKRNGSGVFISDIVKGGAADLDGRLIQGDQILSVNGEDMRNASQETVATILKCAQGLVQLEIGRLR
Chain of TJP1_2, Q07157 (Q07157 181-274): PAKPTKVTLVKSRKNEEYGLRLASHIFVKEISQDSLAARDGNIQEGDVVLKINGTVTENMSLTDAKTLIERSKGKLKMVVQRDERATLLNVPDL
Chain of Inadl_10, Q8NI35 (Q8NI35 1673-1763): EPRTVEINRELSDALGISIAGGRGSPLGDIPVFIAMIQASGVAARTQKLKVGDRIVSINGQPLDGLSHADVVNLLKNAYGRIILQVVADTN
Chain of FRMPD2_2, Q68DX3 (Q68DX3 944-1038): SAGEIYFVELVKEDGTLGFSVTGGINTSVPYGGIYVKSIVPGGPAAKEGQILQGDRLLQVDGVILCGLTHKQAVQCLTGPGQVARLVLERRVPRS
Chain of FRMPD2_1, Q68DX3 (Q68DX3 770-861): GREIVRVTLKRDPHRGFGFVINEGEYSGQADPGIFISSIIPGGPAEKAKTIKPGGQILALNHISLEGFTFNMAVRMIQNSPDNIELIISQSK
Chain of MAGI1_2, Q96QZ7 (Q96QZ7 456-580): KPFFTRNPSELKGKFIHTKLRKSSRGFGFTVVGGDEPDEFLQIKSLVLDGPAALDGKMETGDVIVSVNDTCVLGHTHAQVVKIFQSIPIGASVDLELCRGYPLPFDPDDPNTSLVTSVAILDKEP
Chain of MAGI1_1, Q96QZ7 (Q96QZ7 1-106): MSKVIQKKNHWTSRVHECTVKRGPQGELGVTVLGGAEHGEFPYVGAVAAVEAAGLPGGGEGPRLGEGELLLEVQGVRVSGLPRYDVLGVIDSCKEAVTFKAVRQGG
Chain of Inadl_5, Q8NI35 (Q8NI35 673-780): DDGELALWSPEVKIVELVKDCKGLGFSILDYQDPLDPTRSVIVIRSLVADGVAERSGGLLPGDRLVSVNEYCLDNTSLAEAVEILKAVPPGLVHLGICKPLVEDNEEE

**Q.** With SKPTRRETEV [HPV35-E6_-2P, P27228] as the binder, how does the pKd (FRMPD2_2, Q68DX3; [1]) read?
**A.** below the threshold

**Q.** What about the pKd (HTRA4, P83105; [1]) of the same binder?
**A.** below the threshold

**Q.** What about the pKd (MAGI1_1, Q96QZ7; [1]) of the same binder?
**A.** below the threshold

**Q.** What about the pKd (MAGI1_2, Q96QZ7; [1]) of the same binder?
**A.** below the threshold

**Q.** And the pKd (RADIL, Q96JH8; [1])?
**A.** below the threshold

**Q.** And the pKd (LIN7A, O14910; [1])?
**A.** below the threshold

**Q.** And the pKd (MPP2, Q14168; [1])?
**A.** below the threshold

**Q.** And the pKd (GRIP1_7, Q9Y3R0; [1])?
**A.** below the threshold

**Q.** What about the pKd (FRMPD2_1, Q68DX3; [1]) of the same binder?
**A.** below the threshold

**Q.** And the pKd (TJP2_1, Q9UDY2; [1])?
**A.** below the threshold

**Q.** What about the pKd (PCLO, Q9Y6V0; [1]) of the same binder?
**A.** below the threshold

**Q.** And the pKd (MPDZ_10, O75970; [1])?
**A.** below the threshold

**Q.** And the pKd (ARHGEF11, O15085; [1])?
**A.** below the threshold

**Q.** And the pKd (Inadl_9, Q8NI35; [1])?
**A.** below the threshold

**Q.** What about the pKd (NHERF3_4, Q5T2W1; [1]) of the same binder?
**A.** below the threshold

**Q.** And the pKd (DFNB31_1, Q9P202; [1])?
**A.** below the threshold

**Q.** And the pKd (LNX1_3, Q8TBB1; [1])?
**A.** below the threshold

**Q.** And the pKd (IL16_3, Q14005; [1])?
**A.** below the threshold

**Q.** And the pKd (TJP1_2, Q07157; [1])?
**A.** below the threshold

**Q.** What about the pKd (TX1BP3, O14907; [1]) of the same binder?
**A.** 4.07

**Q.** What about the pKd (GOPC, Q9HD26; [1]) of the same binder?
**A.** below the threshold

**Q.** What about the pKd (Inadl_5, Q8NI35; [1]) of the same binder?
**A.** below the threshold

**Q.** What about the pKd (Inadl_10, Q8NI35; [1]) of the same binder?
**A.** below the threshold

**Q.** And the pKd (MAGI3_2, Q5TCQ9; [1])?
**A.** below the threshold

**Q.** And the pKd (LNX2_2, Q8N448; [1])?
**A.** below the threshold

**Q.** How did the pKd (FRMPD2_2, Q68DX3; [2]) turn out when LRSPRTPSEV [OR10G3, Q8NGC4] was run?
**A.** below the threshold

**Q.** What about the pKd (HTRA4, P83105; [2]) of the same binder?
**A.** 4

**Q.** What about the pKd (MAGI1_1, Q96QZ7; [2]) of the same binder?
**A.** below the threshold

**Q.** What about the pKd (MAGI1_2, Q96QZ7; [2]) of the same binder?
**A.** 3.92

**Q.** And the pKd (RADIL, Q96JH8; [2])?
**A.** below the threshold

**Q.** And the pKd (LIN7A, O14910; [2])?
**A.** below the threshold

**Q.** And the pKd (MPP2, Q14168; [2])?
**A.** below the threshold

**Q.** What about the pKd (GRIP1_7, Q9Y3R0; [2]) of the same binder?
**A.** below the threshold

**Q.** What about the pKd (FRMPD2_1, Q68DX3; [2]) of the same binder?
**A.** below the threshold

**Q.** What about the pKd (TJP2_1, Q9UDY2; [2]) of the same binder?
**A.** below the threshold

**Q.** What about the pKd (PCLO, Q9Y6V0; [2]) of the same binder?
**A.** below the threshold

**Q.** And the pKd (MPDZ_10, O75970; [2])?
**A.** 3.67

**Q.** And the pKd (ARHGEF11, O15085; [2])?
**A.** below the threshold

**Q.** What about the pKd (Inadl_9, Q8NI35; [2]) of the same binder?
**A.** 4.01

**Q.** What about the pKd (NHERF3_4, Q5T2W1; [2]) of the same binder?
**A.** below the threshold

**Q.** And the pKd (DFNB31_1, Q9P202; [2])?
**A.** below the threshold

**Q.** What about the pKd (LNX1_3, Q8TBB1; [2]) of the same binder?
**A.** below the threshold

**Q.** What about the pKd (IL16_3, Q14005; [2]) of the same binder?
**A.** below the threshold

**Q.** And the pKd (TJP1_2, Q07157; [2])?
**A.** 3.62

**Q.** What about the pKd (TX1BP3, O14907; [2]) of the same binder?
**A.** 3.51

**Q.** What about the pKd (GOPC, Q9HD26; [2]) of the same binder?
**A.** below the threshold

**Q.** What about the pKd (Inadl_5, Q8NI35; [2]) of the same binder?
**A.** 4.73

**Q.** What about the pKd (Inadl_10, Q8NI35; [2]) of the same binder?
**A.** below the threshold

**Q.** And the pKd (MAGI3_2, Q5TCQ9; [2])?
**A.** 4.4

**Q.** What about the pKd (LNX2_2, Q8N448; [2]) of the same binder?
**A.** below the threshold

**Q.** With RRRESYSTTV [EVI5, O60447] as the binder, how does the pKd (FRMPD2_2, Q68DX3; [2]) read?
**A.** 3.74

**Q.** What about the pKd (HTRA4, P83105; [2]) of the same binder?
**A.** 4.08

**Q.** And the pKd (MAGI1_1, Q96QZ7; [2])?
**A.** below the threshold

**Q.** And the pKd (MAGI1_2, Q96QZ7; [2])?
**A.** 4.78

**Q.** And the pKd (RADIL, Q96JH8; [2])?
**A.** 4.8

**Q.** And the pKd (LIN7A, O14910; [2])?
**A.** below the threshold

**Q.** And the pKd (MPP2, Q14168; [2])?
**A.** below the threshold

**Q.** What about the pKd (GRIP1_7, Q9Y3R0; [2]) of the same binder?
**A.** below the threshold

**Q.** What about the pKd (FRMPD2_1, Q68DX3; [2]) of the same binder?
**A.** 3.74

**Q.** And the pKd (TJP2_1, Q9UDY2; [2])?
**A.** 4.84

**Q.** And the pKd (PCLO, Q9Y6V0; [2])?
**A.** below the threshold

**Q.** What about the pKd (MPDZ_10, O75970; [2]) of the same binder?
**A.** below the threshold

**Q.** What about the pKd (ARHGEF11, O15085; [2]) of the same binder?
**A.** 4.68

**Q.** And the pKd (Inadl_9, Q8NI35; [2])?
**A.** 3.88

**Q.** And the pKd (NHERF3_4, Q5T2W1; [2])?
**A.** below the threshold

**Q.** And the pKd (DFNB31_1, Q9P202; [2])?
**A.** 3.52

**Q.** What about the pKd (LNX1_3, Q8TBB1; [2]) of the same binder?
**A.** below the threshold

**Q.** What about the pKd (IL16_3, Q14005; [2]) of the same binder?
**A.** below the threshold

**Q.** What about the pKd (TJP1_2, Q07157; [2]) of the same binder?
**A.** below the threshold

**Q.** What about the pKd (TX1BP3, O14907; [2]) of the same binder?
**A.** 4.09

**Q.** And the pKd (GOPC, Q9HD26; [2])?
**A.** 4.36

**Q.** What about the pKd (Inadl_5, Q8NI35; [2]) of the same binder?
**A.** 3.63

**Q.** What about the pKd (Inadl_10, Q8NI35; [2]) of the same binder?
**A.** 3.8

**Q.** And the pKd (MAGI3_2, Q5TCQ9; [2])?
**A.** 5.18

**Q.** What about the pKd (LNX2_2, Q8N448; [2]) of the same binder?
**A.** 5.2
